# Molecular target: monoclonal antibody against the N-terminal FERM domain of moesin
# Assay: cell-based or functional assay
substance,measurement,value
N-terminal FERM domain of human moesin protein (from UniProt P26038 1-297),"CD62P FD (Mnx), platelet activation induced by anti-moesin N-terminal domain antibody, inhibitor N-terminal FERM domain",5.79 FD (Mnx)
same,"CD63 FD (Mnx), platelet activation induced by anti-moesin N-terminal domain antibody, inhibitor N-terminal FERM domain",6.3 FD (Mnx)
same,"PAIR, platelet aggregation induced by anti-moesin N-terminal domain antibody (2 µg/mL), inhibitor N-terminal domain (0.2 mM)",90.2%
same,"PAR (%), platelet aggregation induced by anti-moesin N-terminal domain antibody (2 µg/mL), inhibitor N-terminal domain (0.2 mM)",6.03%
